From the DeepSol protein solubility set

Test: soluble on expression in E. coli; label from the status in PepcDB or PDB records

Sequence | soluble on expression in E. coli
MRGEFYQQLTNDLETARAEGLFKEERIITSAQQADITVADGSHVINFCANNYLGLANHPDLIAAAKAGMDSHGFGMASVRFICGTQDSHKELEQKLAAFLGMEDAILYSSCFDANGGLFETLLGAEDAIISDALNHASIIDGVRLCKAKRYRYANNDMQELEARLKEAREAGARHVLIATDGVFSMDGVIANLKGVCDLADKYDALVMVDDSHAVGFVGENGRGSHEYCDVMGRVDIITGTLGKALGGASGGYTAARKEVVEWLRQRSRPYLFSNSLAPAIVAASIKVLEMVEAGSELRDRLWANARQFREQMSAAGFTLAGADHAIIPVMLGDAVVAQKFARELQKEGIYVTGFFYPVVPKGQARIRTQMSAAHTPEQITRAVEAFTRIGKQLGVIA | soluble
MRGIRDPRLIPIAEKVMEGKRLSFEDGLVLYQTKDLPTLMRLANLVRERKHGHKTYFVHSIRVSQTNICYVGCTFCAFQRRFGEEGAWDWDVDEVVAWVKERYQPGLTEIHLTAGHHPKRPFAYYLDLVRALKENFPGVQVKAWTAAEIHHFSKIARLPYREVLKALKEAGLDAMPGGGAEIFAERVRRKIARAKVSAEGWLEIHRTAHELGIPTNATMLYGHIETLEERLDHMDRLRRLQDETGGFMSFIPLAFQPDGNQLARELGKKEFTTGLDDLRNLAVARLYLDNFPHIKGYWATLTPELAQVSLDWGVTDVDGTLIEERIVHMAGSPTPQGLTKRELARIILMAGRIPVERDALYREVRVWDRVEA | soluble
MRGSHHHHHHGSENLYFQSGAMEIREQLNLGGIVNAQNAQLSNCSDGAAQLESCGTAPDLKGITGWLNTPGNKPIDLKSLRGKVVLIDFWAYSCINCQRAIPHVVGWYQAYKDSGLAVIGVHTPEYAFEKVPGNVAKGAANLGISYPIALDNNYATWTNYRNRYWPAEYLIDATGTVRHIKFGEGDYNVTETLVRQLLNDAKPGVKLPQPSSTTTPDLTPRAALTPETYFGVGKVVNYGGGGAYDEGSAVFDYPPSLAANSFALRGRWALDYQGATSDGNDAAIKLNYHAKDVYIVVGGTGTLTVVRDGKPATLPISGPPTTHQVVAGYRLASETLEVRPSKGLQVFSFTYG | soluble
MRGSHHHHHHPEYDYIRDGNAIYERSFAIIRAEADLSRFSEEEADLAVRMVHACGSVEATRQFVFSPDFVSSARAALKAGAPILCDAEMVAHGVTRARLPAGNEVICTLRDPRTPALAAEIGNTRSAAALKLWSERLAGSVVAIGNAPTALFFLLEMLRDGAPKPAAILGMPVGFVGAAESKDALAENSYGVPFAIVRGRLGGSAMTAAALNSLARPGL | soluble
MRGSHHHHHHTDPALRAKPENKLPVLDLISAEMKTVVNTLQPDLPPWPATGTIAEQRQYYTLERRFWNAGAPEMATRAYMVPTKYGQVETRLFCPQPDSPATLFYLHGGGFILGNLDTHDRIMRLLASYSQCTVIGIDYTLSPEARFPQAIEEIVAACCYFHQQAEDYQINMSRIGFAGDSAGAMLALASALWLRDKQIDCGKVAGVLLWYGLYGLRDSVTRRLLGGVWDGLTQQDLQMYEEAYLSNDADRESPYYCLFNNDLTREVPPCFIAGAEFDPLLDDSRLLYQTLAAHQQPCEFKLYPGTLHAFLHYSRMMKTADEALRDGAQFFTAQLGLCGR | soluble
MRGSHHHHHHTDPALRARIGIDLGGTKTEVIALGDAGEQLYRHRLPTPRDDYRQTIETIATLVDMAEQATGQRGTVGMGIPGSISPYTGVVKNANSTWLNGQPFDKDLSARLQREVRLANDANCLAVSEAVDGAAAGAQTVFAVIIGTGCGAGVAFNGRAHIGGNGTAGEWGHNPLPWMDEDELRYREEVPCYCGKQGCIETFISGTGFAMDYRRLSGHALKGSEIIRLVEESDPVAELALRRYELRLAKSLAHVVNILDPDVIVLGGGMSNVDRLYQTVGQLIKQFVFGGECETPVRKAKHGDSSGVRGAAWLWPQEGLCGR | soluble
MRGSHHHHHHTDPALRAYDNLKSLGITNPEEIDRYSLRQEANNDILKIYFQKDKGEFFAKSVKFKYPRQRKTVVADGVGQGYKEVQEISPNLRYIIDELDQICQRDRSEVDLKRKILDDLRHLESVVTNKISEIEADLEKLTRKGLCGR | soluble
MRGSVAALLLAAGRSIRMGRCKQLLPLGNTTVLGRCLDTLRRGGVGEIAVVVSADGEQVARAAAGHGVRVVVNPDREGDMASSVRAGRDAFGSAVGGVIVSLCDQPLVAAGTVARLRDRHATEPGRIIIPTHGGRRGHPLLFPLPVLAELEDGLTLRDLVVCDPARVCCVAVADPGILIDMDTPEDYRHVCRLMAPQEGLSLRLEHHHHHH | not soluble
MRGSVPSVREIETLLSQLPWRQFQSPRVHLEQYTTPVHLAARIAHHVALCIDEDERRSVQAVDLGTGTGILALALCLAGLNHVLGVDVDSEALELARANAAALWELCPQSVGAVLEFAAVDVQPNSLALAPKSFDVAVLNPPFGTRQRSADIAFLDVACHLSRRFVYSLHKSSTRSYLSRRLERFGCTAQVYARLRFDLPATYVFHRERAVDIDVDLWQIEVKR | not soluble
MRGVTPINPQKKIEADSNPVKESDYYEGERLTHLLDLIQRGIETSKLSNVNSLPEKIWLKKQIAIGINEVTRVLERMNPNNTSDQQQNPKQLQVVILVADCKPRMLTKHIPNLAASRNVPVLYVRDNKRASLRLGELVKLKTALAIGIKARGNDLNLLLKQILPRDS | soluble
MRHLFASLAFMLATSTVAHAEKLTLEAITGPLPLSGPTLMKPKVAPDGSRVTFLRGKDSDRNQLDLWSYDIGSGQTRLLVDSKVVLPGTETLSDEEKARRERQRIAAMTGIVDYQWSPDAQRLLFPLGGELYLYDLKQEGKAAVRQLTHGEGFATDAKLSPKGGFVSFIRGRNLWVIDLASGRQMQLTADGSTTIGNGIAEFVADEEMDRHTGYWWAPDDSAIAYARIDESPVPVQKRYEVYADRTDVIEQRYPAAGDANVQVKLGVISPAEQAQTQWIDLGKEQDIYLARVNWRDPQHLSFQRQSRDQKKLDLVEVTLASNQQRVLAHETSPTWVPLHNSLRFLDDGSILWSSERTGFQHLYRIDSKGKAAALTHGNWSVDELLAVDEKAGLAYFRAGIESARESQIYAVPLQGGQPQRLSKAPGMHSASFARNASVYVDSWSNNSTPPQIELFRANGEKIATLVENDLADPKHPYARYREAQRPVEFGTLTAADGKTPLNYSVIKPAGFDPAKRYPVAVYVYGGPASQTVTDSWPGRGDHLFNQYLAQQGYVVFSLDNRGTPRRGRDFGGALYGKQGTVEVADQLRGVAWLKQQPWVDPARIGVQGWSNGGYMTLMLLAKASDSYACGVAGAPVTDWGLYDSHYTERYMDLPARNDAGYREARVLTHIEGLRSPLLLIHGMADDNVLFTNSTSLMSALQKRGQPFELMTYPGAKHGLSGADALHRYRVAEAFLGRCLKP | soluble
MRHLLDFQGWSRTEVESLLDTARVMREVLERPIKKVPALQGFTVATVFFEPSTRTRISFELAARRMSADVVSFAAQTSSLQKGESYKDTLLTLEAMGVDAYVIRADSAGVPHQATRWVKGAVINGGDGRRAHPTQALLDAYTLLEALGTLEGKKVAIVGDILHSRVARSGAELLSLLGAQVFCAGPPSLLPQSLPGAHLTPRLEEALEEADAVMVLRLQKERMEAGLVHLEDYVARYQVTEKRLALAKPQAPLLHPGPMNRDVELEGTLADSARSLVNRQVQNGVAVRMAALYHLLVGKEKA | soluble
MRIFERYNPSKVAKYVKTLFRGRLYIKGVGAFEFDYGKILLPKKQDKQHLLVMSEVNRQVIRLQAEMGLEHHHHHH | not soluble
MRISSLLFLTFLAGIVQAQDFLAMFKPFLGGGGGGGNPFANPQAIGGLFQQFAGGNGGGFGQLLAGAMAPKPAPAAAGPRSAPAPTNEDYNTDIDVPAPKAKARAAPTPRRAQGDDDDNIDMSLTRLG | not soluble
MRIVVISLFLFSGVFGRASREAEKKQDTVACGELRDEYVRVCTGANTKRREQKDKDFCNAFENICFSIPEGEPDKAKDAEVTGPRTAAISPESAAAVRGETTGSAHKKTNFARFCKEFKNQYLYVCPDPFRFGQKAIVFCPVYSEKCHVPLPDKPVIPQRKSHRKRGPGGAVNQLCRSYQGFAMNYCNNPILTAQSQYRTACDKYWRFCGKFHQQG | not soluble
MRIWIDADACPKAAKELVCKFALKRKLEVWMVAGQPQVKPPFACVRLVVVESGMDAADDYLVEQAEPGDLAICSDVPLADRLIKKQVAALDPRGREFDARNMGDKLAMRNLMADLRDQGQMGGGQAPYGERDRQAFANALDRLLTRLQREADLRASQPHR | not soluble
MRKISVFDTTLRDGEQSAGVNLNFEEKMEIAKQLERLGVDIIEAGFPASSQGDFQSVKAIAETVKGSSVTGLARSVQKDIDAAWEALKSAEEPRIHLFIATSPIHMEHKLRMTPEQVIEKAVESVKYAASRFKHVQWSAEDASRSDFPFLAQIIEAVIQAGATVINLPDTVGYTTPQEIKRMFQYMKQNVPSIDKVSLSTHNHDDLGMAVANSLAAIQGGADQVECTINGIGERAGNASLEEIAVALNIRKDHYETETGLILKEIKRTSSLVSKLTGMVVPNNKAVVGANAFAHESGIHQDGVLKNKQTYEIITPEMVGVSSNSMVLGKHSGRHAFKTKVQELGFTGTDEQLNNIFKAFKDLADKKKEITEDDLFALMTEQTVGGETNHYELQTLQVNYGSNLTNTATITMKLPSGEVAEEAATGSGSVEAIYNTLERLLDAPVKLLDYRIQSITGGRDALADVYVQMDYQGVVSSGRGTAHDVLEASAKAYLNAVNRTINRKKYAEVYGSKVEV | soluble
MRKIVLPGDLLSTNPRAAGYGTYVEGGKVYAKIIGLFDQTETHVRVIPLKGRYTPSVGDVVIGIIREVAANGWAVDIYSPYQAFLPVSENPEMKPNKKPNEVLDIGDAIIAKVLNIDPKMKVTLTMKDRICRPIRFGRIVAINPARVPRVIGKKGSMIKLLKSELDVQIVVGQNGLIWVNGDRRKVSIAEEAIYLIEQEAHTEGLTDRVAEFIKRRKADVGIQHHHHHH | soluble
MRKLVVGITIASLMGCSMGHRDPVEVKQALNESINQANSRALEEIPSSVEADLMPNLDSNVSSDNGTSKRFRIQANAVEARSFFASLVKGTEYSVAIHPAVQGNITVNLSDVTLDEVLSVVQNMYGYDVMKSGKVIQVYPAGMRTVTIPVDYLQFKRSGRSLTSIVTGSVTSAGTSNSGGSSDSSDSSDSNNSNNGNDSSTTSTGGTRIETITESDFWPMLQQAVANLIGSGKGQSVVVTPQAGVITVRAFPDDIREVREFLGVSQERMQRQVILEAKILEVTLSDGYQQGINWSNLSASIGNSGSIIVNRPASALPPLDAIGTLLGGQTNVTISDGNFEAVLNFMSTQGDLNVLSSPRITAANNQKSVIKVGTDQYFVTELSSNAGNGENSNAVPEVELTPFFSGISLDVTPQIDNKGNVFLHVHPAVIEVTEEVKQLNLGGDFQNIQLPLAKSSIRESDSVIRAKDGDVVVIGGLMKQQNVEQVSKVPFLGDVPALGHLFRNTSNVTQKTELVILLKPTVVGVNSWQKELERSRDLLQEWFPDAQLEHHHHHH | not soluble
MRKPKITVIGGGTGSPVILKSLREKDVEIAAIVTVADDGGSSGELRKNMQQLTPPGDLRNVLVAMSDMPKFYEKVFQYRFSEDAGAFAGHPLGNLIIAGLSEMQGSTYNAMQLLSKFFHTTGKIYPSSDHPLTLHAVFQDGTEVAGESHIVDHRGIIDNVYVTNALNDDTPLASRRVVQTILESDMIVLGPGSLFTSILPNIVIKEIGRALLETKAEIAYVCNIMTQRGETEHFTDSDHVEVLHRHLGRPFIDTVLVNIEKVPQEYMNSNRFDEYLVQVEHDFVGLCKQVSRVISSNFLRLENGGAFHDGDLIVDELMRIIQVKKLEHHHHHH | soluble
